Measurements taken from paper PMC8892516, “Intragenic suppressors unravel the role of the SCREAM ACT-like domain for bHLH partner selectivity in stomatal development” (Proceedings of the National Academy of Sciences of the …, 2022).
Numbering of substitutions follows the chain as printed.

What was measured:
Conditions in all cases: both partners purified
[1] = biological target: T1, MUTE (1-202) (Arabidopsis thaliana, UniProt Q9M8K6 1-202); test: ITC; Malvern PEAQ-ITC; 40 µM SCRM/SCRMΔC injected into 4 µM SPCH/MUTE/FAMA; PBS, pH 7.2 (Table S1; methods: pH 7.4); 25 °C; single binding site model; means of two experiments
T1 construct: MUTE, Arabidopsis thaliana, residues 1-202; MUTE (1-202) was made both as a GST fusion (pGEX-4T-1, thrombin-cleavable) and with an N-terminal His tag (pET28a); also called MUTE-HIS; MUTE-histag; source: E. coli BL21, purified (Ni-NTA or glutathione resin, Superdex-200)
T1 sequence (looked up): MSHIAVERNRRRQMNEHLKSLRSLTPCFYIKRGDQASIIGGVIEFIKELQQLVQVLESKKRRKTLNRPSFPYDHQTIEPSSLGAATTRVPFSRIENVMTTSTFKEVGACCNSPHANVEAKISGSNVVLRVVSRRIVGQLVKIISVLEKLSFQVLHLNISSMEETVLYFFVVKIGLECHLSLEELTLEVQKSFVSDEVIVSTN

[2] = biological target: T2, SPCH (ΔNSPCH, 98-364) (Arabidopsis thaliana, UniProt Q700C7 98-364); test: as above
T2 construct: the only recombinant SPCH with bHLH domain that the methods list is ΔNSPCH (98-364); source: E. coli BL21, purified (glutathione resin, thrombin, Superdex-200); not shown: GST, N-terminal, cleaved
T2 sequence (looked up): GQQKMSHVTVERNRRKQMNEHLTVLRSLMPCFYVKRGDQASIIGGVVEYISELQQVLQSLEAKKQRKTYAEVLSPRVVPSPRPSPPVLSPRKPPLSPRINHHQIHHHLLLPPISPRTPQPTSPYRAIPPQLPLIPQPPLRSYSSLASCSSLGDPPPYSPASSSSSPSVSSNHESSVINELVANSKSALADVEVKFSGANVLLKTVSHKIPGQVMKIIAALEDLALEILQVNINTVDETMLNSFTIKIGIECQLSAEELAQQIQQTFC

[3] = biological target: T3, FAMA (ΔNFAMA) (Arabidopsis thaliana, Limits not printed. Start set by analogy with the printed ΔNSPCH 98-364 (one residue before the annotated bHLH). Runs to the native C-terminus. Tag or fusion carrier omitted.); test: as above
T3 chain: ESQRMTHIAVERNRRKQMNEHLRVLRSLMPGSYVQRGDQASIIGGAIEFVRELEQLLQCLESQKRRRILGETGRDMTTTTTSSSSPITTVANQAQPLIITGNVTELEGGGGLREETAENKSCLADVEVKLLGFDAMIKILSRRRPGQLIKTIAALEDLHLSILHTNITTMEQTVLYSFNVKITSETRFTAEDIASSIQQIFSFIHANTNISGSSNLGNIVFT

[4] = biological target: T4, SPCH-ACTL (285-364) (Arabidopsis thaliana, UniProt Q700C7 285-364); test: ITC; Malvern PEAQ-ITC; 150 µM SCRM ACTL/SCRM L484F ACTL injected into 15 µM SPCH ACTL/MUTE ACTL; PBS, pH 7.2 (Table S3; methods: pH 7.4); 25 °C; means of two experiments
T4 construct: also called SPCH ACTL domain; source: E. coli BL21, purified (glutathione resin, thrombin, Superdex-200); not shown: GST, N-terminal, cleaved
T4 sequence (looked up): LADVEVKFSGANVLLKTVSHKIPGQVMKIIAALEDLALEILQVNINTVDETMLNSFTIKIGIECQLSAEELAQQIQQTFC

[5] = biological target: T5, MUTE-ACTL (114-202) (Arabidopsis thaliana, UniProt Q9M8K6 114-202); test: as above
T5 construct: MUTE, Arabidopsis thaliana, C-terminal ACT-like domain, residues 114-202; also called MUTE ACTL domain; source: E. coli BL21, purified (glutathione resin, thrombin, Superdex-200); not shown: GST, N-terminal, cleaved
T5 sequence (looked up): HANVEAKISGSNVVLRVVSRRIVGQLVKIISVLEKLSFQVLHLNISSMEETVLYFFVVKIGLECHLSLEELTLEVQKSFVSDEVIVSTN

[6] = biological target: T6, ΔNFAMA, recombinant (Arabidopsis thaliana, Limits not printed. Start set by analogy with the printed ΔNSPCH 98-364, which starts one residue before its annotated bHLH (99); FAMA bHLH is 194-245. Runs to the native C-terminus, including the ACT); test: ITC; Malvern PEAQ-ITC, 25 °C, PBS pH 7.4; 40 μM SCRM/SCRMΔC injected into 4 μM SPCH/MUTE/FAMA; single binding site model
T6 chain: T3 chain

[7] = biological target: T7, MUTE (1-202), recombinant (Arabidopsis thaliana, UniProt Q9M8K6 1-202); test: as above
T7 construct: MUTE, Arabidopsis thaliana, residues 1-202; MUTE (1-202) was cloned both in pGEX-4T-1 (N-terminal GST, thrombin cleaved) and in pET28a (N-terminal His tag); also called purified MUTE; MUTE-HIS; source: E. coli BL21, purified (Ni-NTA, Superdex-200)
T7 sequence (looked up): T1 sequence (looked up)

[8] = biological target: T8, ΔNSPCH (98-364), recombinant (Arabidopsis thaliana, UniProt Q700C7 98-364); test: as above
T8 construct: BLI and ITC name it only SPCH; ΔNSPCH (98-364) is the only long recombinant SPCH construct that the methods list; also called purified SPCH; source: E. coli BL21, purified (glutathione resin, thrombin, Superdex-200); not shown: GST, N-terminal, cleaved
T8 sequence (looked up): T2 sequence (looked up)

[9] = biological target: T9, SCRM ACTL_(L484F) (405-494) (Arabidopsis thaliana, UniProt Q9LSE2 405-494, L484F); test: ITC; Malvern PEAQ-ITC, 25 °C, PBS pH 7.4; 150 μM SCRM ACTL/SCRM L484F ACTL injected into 15 μM SPCH ACTL/MUTE ACTL
T9 construct: SCREAM (SCRM, ICE1), Arabidopsis thaliana, At3G26744, ACT-like domain, residues 405-494, L484F (printed L485F in the methods); results, legends and the ITC methods print L484F; the cloning, CD and modelling methods print L485F; also called SCRM-ACTL_(L485F); SCRM L484F ACTL; source: E. coli BL21, purified (glutathione resin, thrombin, Superdex-200); not shown: GST, N-terminal, cleaved
T9 sequence (looked up): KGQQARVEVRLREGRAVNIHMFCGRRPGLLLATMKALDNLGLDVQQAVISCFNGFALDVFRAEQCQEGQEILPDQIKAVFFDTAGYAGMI

[10] = biological target: T10, SCRM ACTL (405-494) (Arabidopsis thaliana, UniProt Q9LSE2 405-494); test: as above
T10 construct: SCREAM (SCRM, ICE1), Arabidopsis thaliana, At3G26744, ACT-like domain, residues 405-494; also called SCRM ACTL domain; source: E. coli BL21, purified (glutathione resin, thrombin, Superdex-200); not shown: GST, N-terminal, cleaved
T10 sequence (looked up): T9 sequence (looked up) with F80L

B1: SCRM (1-494), GST removed (natural protein, Arabidopsis thaliana, UniProt Q9LSE2 1-494, looked up)
chain: MGLDGNNGGGVWLNGGGGEREENEEGSWGRNQEDGSSQFKPMLEGDWFSSNQPHPQDLQMLQNQPDFRYFGGFPFNPNDNLLLQHSIDSSSSCSPSQAFSLDPSQQNQFLSTNNNKGCLLNVPSSANPFDNAFEFGSESGFLNQIHAPISMGFGSLTQLGNRDLSSVPDFLSARSLLAPESNNNNTMLCGGFTAPLELEGFGSPANGGFVGNRAKVLKPLEVLASSGAQPTLFQKRAAMRQSSGSKMGNSESSGMRRFSDDGDMDETGIEVSGLNYESDEINESGKAAESVQIGGGGKGKKKGMPAKNLMAERRRRKKLNDRLYMLRSVVPKISKMDRASILGDAIDYLKELLQRINDLHNELESTPPGSLPPTSSSFHPLTPTPQTLSCRVKEELCPSSLPSPKGQQARVEVRLREGRAVNIHMFCGRRPGLLLATMKALDNLGLDVQQAVISCFNGFALDVFRAEQCQEGQEILPDQIKAVLFDTAGYAGMI
notes: SCREAM (SCRM, ICE1), Arabidopsis thaliana, At3G26744, residues 1-494; Used for ITC; the methods tell thrombin cleavage of the GST-fused proteins in general, not for ITC by name; also called SCREAM; ICE1; source: E. coli BL21, purified (glutathione resin, thrombin, Superdex-200); not shown: GST, N-terminal, cleaved
[1]
  stoichiometry N: 1.03
[2]
  stoichiometry N: 1.02
[3]
  stoichiometry N: 0.91

B2: SCRM ACTL (405-494) (domain or fragment, Arabidopsis thaliana, UniProt Q9LSE2 405-494, looked up)
chain: T9 sequence (looked up) with F80L
notes: SCREAM (SCRM, ICE1), Arabidopsis thaliana, At3G26744, C-terminal ACT-like domain, residues 405-494; also called SCRM ACTL domain; source: E. coli BL21, purified (glutathione resin, Superdex-200)
[4]
  stoichiometry N: 0.95
[5]
  stoichiometry N: 0.95

B3: SCRM (1-494), recombinant (natural protein, Arabidopsis thaliana, UniProt Q9LSE2 1-494, looked up)
chain: B1 chain
notes: SCREAM (SCRM, ICE1), Arabidopsis thaliana, At3G26744, residues 1-494; the purification methods tell thrombin cleavage; source: E. coli BL21, purified (glutathione resin, thrombin, Superdex-200); not shown: GST, N-terminal, cleaved
[6]
  stoichiometry N: 1
[7]
  stoichiometry N: 1
[8]
  stoichiometry N: 1

B4: SPCH-ACTL (285-364) (domain or fragment, Arabidopsis thaliana, UniProt Q700C7 285-364, looked up)
chain: T4 sequence (looked up)
notes: source: E. coli BL21, purified (glutathione resin, thrombin, Superdex-200); not shown: GST, N-terminal, cleaved
[9]
  Kd: 1700 nM
[10]
  Kd: 1200 nM
